From patent US20180142226
Numbering of substitutions follows the chain as printed. Names and notes keep the numbering of the source.

B1: Kuma011-I463Q (protein)
chain: AAPTAYTPLDVAQAYQFPEGLDGQGQCIAIIELGGGYDEASLAQYFASLGVPAPQVVSVSVDGASNQPTGDPKGPDGEVELDIEVAGALAPGAKFAVYFAPDTTAGFLDAITTAIHDPTLKPSVVSISWSGPEDSWTSAAIAAMNRAFLDAAALGVTVLAAAGDSGSTGGEQDGLYHVHFPAASPYVLACGGTRLVASGGRIAQETVWNDGPDGGATGGGVSRIFPLPAWQEHANVPPSANPGASSGRGVPDLAGNADPATGYEVVIDGEATVQGGTSAVAPLFAALVARINQKLGKAVGYLNPTLYQLPADVFHDITEGNNDIANRAQIYQAGPGWDPCTGLGSPIGVRLLQALLPSASQPQ
B2: Kuma011-G358Q (protein)
chain: B1 chain with G169Q, Q274I
B3: Kuma011-L270A (protein)
chain: B1 chain with L81A, Q274I
B4: Kuma011-V268S (protein)
chain: B1 chain with V79S, Q274I
B5: Kuma011-G358S (protein)
chain: B1 chain with G169S, Q274I
B6: Kuma011-I463T (protein)
chain: B1 chain with Q274T
B7: Kuma010/011 A449N (protein)
chain: B1 chain with A260N, Q274I
B8: Kuma011-I463L (protein)
chain: B1 chain with Q274L
B9: Kuma011-I463A (protein)
chain: B1 chain with Q274A
B10: Kuma011-H368Q (protein)
chain: B1 chain with H179Q, Q274I
B11: Kuma010/011 S319A (protein)
chain: B1 chain with S130A, Q274I
B12: Kuma011-D402S (protein)
chain: B1 chain with D213S, Q274I
B13: Kuma011-H368F (protein)
chain: B1 chain with H179F, Q274I
B14: Kuma011-L270V (protein)
chain: B1 chain with L81V, Q274I
B15: Kuma011-S354E (protein)
chain: B1 chain with S165E, Q274I
B16: Kuma011-E269T (protein)
chain: B1 chain with E80T, Q274I
B17: Kuma011-T461R (protein)
chain: B1 chain with T272R, Q274I
B18: Kuma011-D402Q (protein)
chain: B1 chain with D213Q, Q274I
B19: Kuma011-S354Q (protein)
chain: B1 chain with S165Q, Q274I
B20: Kuma011-I463V (protein)
chain: B1 chain with Q274V
B21: Kuma011-K262E (protein)
chain: B1 chain with K73E, Q274I
B22: Kuma011-L270T (protein)
chain: B1 chain with L81T, Q274I
B23: Kuma011-D399Q (protein)
chain: B1 chain with D210Q, Q274I
B24: Kuma011-S354Y (protein)
chain: B1 chain with S165Y, Q274I
B25: Kuma011-E269L (protein)
chain: B1 chain with E80L, Q274I
B26: Kuma011-T406S (protein)
chain: B1 chain with T217S, Q274I
B27: Kuma011-G358T (protein)
chain: B1 chain with G169T, Q274I
B28: Kuma011-G358N (protein)
chain: B1 chain with G169N, Q274I
B29: Kuma011-I463R (protein)
chain: B1 chain with Q274R
B30: Kuma011-V268T (protein)
chain: B1 chain with V79T, Q274I
B31: Kuma011-I463M (protein)
chain: B1 chain with Q274M
B32: Kuma011-S354A (protein)
chain: B1 chain with S165A, Q274I
B33: Kuma011-V268A (protein)
chain: B1 chain with V79A, Q274I
B34: Kuma011-S354R (protein)
chain: B1 chain with S165R, Q274I
B35: Kuma011-A449E (protein)
chain: B1 chain with A260E, Q274I
B36: Kuma062 (protein)
chain: AAPTAYTPLDVAQAYQFPEGLDGQGQCIAIIELGGGYDEASLAQYFASLGVPAPQVVSVSVDGASNQPTGDPEGPDGEVTLDIEVAGALAPGAKFAVYFAPDTTAGFLDAITTAIHDPTLKPSVVSISWSMPEDSWTSAAIAAMNRAFLDAAALGVTVLAAAGDQGSTSGEQDGLYHVHFPAASPYVLACGGTRLVASGGRIAQETVWNQGPDGGATGGGVSRIFPLPAWQEHANVPPSANPGASSGRGVPDLAGNADPQTGYEVVIDGEATVTGGTSAVAPLFAALVARINQKLGKAVGYLNPTLYQLPADVFHDITEGNNDIANRAQIYQAGPGWDPCTGLGSPIGVRLLQALLPSASQPQP

Target: T1, PFPQPQLPY peptide
T1 chain: PFPQPQLPY

| Protein | % Improvement on PFPQPQLPY (SEQ ID NO: 67) |
| --- | --- |
| B1 | 129% |
| B2 | 147% |
| B3 | 203% |
| B4 | 104% |
| B5 | 331% |
| B6 | 130% |
| B7 | 119% |
| B8 | 124% |
| B9 | 51% |
| B10 | 199% |
| B11 | 154% |
| B12 | 94% |
| B13 | 334% |
| B14 | 474% |
| B15 | 124% |
| B16 | 263% |
| B17 | 120% |
| B18 | 164% |

| Protein | % Improvement on PFPQPQLPY (SEQ ID NO: 67) |
| --- | --- |
| B19 | 145% |
| B20 | 256% |
| B21 | 109% |
| B22 | 307% |
| B23 | 149% |
| B24 | 46% |
| B25 | 113% |
| B26 | 84% |
| B27 | 283% |
| B28 | 120% |
| B29 | 29% |
| B30 | 127% |
| B31 | 123% |
| B32 | 152% |
| B33 | 107% |
| B34 | 109% |
| B35 | 149% |

target: DQ2.5-glia-ω1

| Protein | detection of full-length peptide and of the PFPQPQ breakdown product over time |
| --- | --- |
| B36 | Kuma062 demonstrates a higher level of enzymatic activity than Kuma030 or Kuma040 |

Target: T2, PFPQPQQPF peptide
T2 chain: PFPQPQQPF

| Protein | % Improvement on PFPQPQQPF (SEQ ID NO: 68) |
| --- | --- |
| B1 | 69% |
| B2 | 149% |
| B3 | 92% |
| B4 | 83% |
| B5 | 224% |
| B6 | 239% |
| B7 | 118% |
| B8 | 22% |
| B9 | 234% |
| B10 | 195% |
| B11 | 184% |
| B12 | 108% |
| B13 | 104% |
| B14 | 61% |
| B15 | 120% |
| B16 | 191% |
| B17 | 86% |
| B18 | 111% |

| Protein | % Improvement on PFPQPQQPF (SEQ ID NO: 68) |
| --- | --- |
| B19 | 141% |
| B20 | 141% |
| B21 | 110% |
| B22 | 29% |
| B23 | 208% |
| B24 | 105% |
| B25 | 84% |
| B26 | 101% |
| B27 | 128% |
| B28 | 99% |
| B29 | 110% |
| B30 | 105% |
| B31 | 53% |
| B32 | 140% |
| B33 | 89% |
| B34 | 82% |
| B35 | 208% |
